# Measurements published in article PMC270082.
# Assays:
# [1] = target: PcrG (residues 1-98) (P. aeruginosa strain CHA); assay: native MS
# [2] = target: PcrG (residues 1-98) (P. aeruginosa strain CHA); assay: SPR
# [3] = target: PcrG (1-74) (P. aeruginosa strain CHA); assay: SPR
substance,measurement,setting,value
PcrV (from UniProt G3XD49 1-294) (natural protein),stoichiometry N,[1],1
same,Kd,[2],15.6 nM
same,koff,[2],0.00694 s⁻¹
same,kon,[2],445000 M⁻¹ s⁻¹
same,Kd,[3],15.6 nM
same,koff,[3],0.00491 s⁻¹
same,kon,[3],316000 M⁻¹ s⁻¹
